Measurements published in patent EP3597215A1 (dated 2020).

Molecular target: prostate-specific membrane antigen (PSMA) (UniProt Q04609 1-750, limits assumed)
Experiment: cell-based or functional assay

Chain of prostate-specific membrane antigen (PSMA) (Q04609 whole entry): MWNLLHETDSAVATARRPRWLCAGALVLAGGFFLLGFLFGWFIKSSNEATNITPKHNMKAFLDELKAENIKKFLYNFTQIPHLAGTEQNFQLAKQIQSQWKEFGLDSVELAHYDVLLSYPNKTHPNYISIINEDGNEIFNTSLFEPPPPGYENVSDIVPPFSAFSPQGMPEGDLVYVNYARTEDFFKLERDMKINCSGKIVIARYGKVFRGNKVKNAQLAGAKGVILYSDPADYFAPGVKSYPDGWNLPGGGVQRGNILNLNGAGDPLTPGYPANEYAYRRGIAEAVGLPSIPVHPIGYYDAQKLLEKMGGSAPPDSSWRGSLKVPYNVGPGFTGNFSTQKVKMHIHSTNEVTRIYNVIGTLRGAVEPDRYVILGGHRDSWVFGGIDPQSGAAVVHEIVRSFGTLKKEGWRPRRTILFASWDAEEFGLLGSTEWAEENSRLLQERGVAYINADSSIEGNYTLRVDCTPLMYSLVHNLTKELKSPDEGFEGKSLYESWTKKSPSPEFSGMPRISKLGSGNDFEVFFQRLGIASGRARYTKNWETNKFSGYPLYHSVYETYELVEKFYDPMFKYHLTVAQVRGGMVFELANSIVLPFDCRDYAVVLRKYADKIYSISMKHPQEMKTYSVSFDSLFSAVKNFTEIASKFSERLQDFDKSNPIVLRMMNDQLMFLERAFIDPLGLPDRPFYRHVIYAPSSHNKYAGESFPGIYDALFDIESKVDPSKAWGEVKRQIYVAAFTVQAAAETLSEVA

B1: P28BB (anti-PSMA chimeric costimulatory receptor) (other)
chain: EVQLQQSGPELVKPGTSVRISCKTSGYTFTEYTIHWVKQSHGKSLEWIGNINPNNGGTTYNQKFEDKATLTVDKSSSTAYMELRSLTSEDSAVYYCAAGWNFDYWGQGTTVTVSSGGGGSGGGGSGGGGSDIVMTQSHKFMSTSVGDRVSIICKASQDVGTAVDWYQQKPGQSPKLLIYWASTRHTGVPDRFTGSGSGTDFTLTITNVQSEDLADYFCQQYNSYPLTFGAGTMLDLKRAAAIEVMYPPPYLDNEKSNGTIIHVKGKHLCPSPLFPGPSKPFWVLVVVGGVLACYSLLVTVAFIIFWVRSKRSRLLHSDYMNMTPRRPGPTRKHYQPYAPPRDFAAYRSRFSVVKRGRKKLLYIFKQPFMRPVQTTQEEDGCSCRFPEEEEGGCE
long-term T cell proliferation (expansion over 31 days) of 19z1+P28BB T cells on AAPCs expressing CD19 and PSMA: 58 fold
